Consider two molecules from publication PMC2561067 (2008).

To fix the notation:
B1: trypsin (protein)
chain: SSGTSYPDVLKCLKAPILSDSSCKSAYPGQITSNMFCAGYLEGGKDSCQGDSGGPVVCSGKLQGIVSWGSGCAQKNKPGVYTKVCNYVSWIKQTIASN

One assay deals with BPTI (Bos taurus, UniProt P00974). The experiment in a line: ITC.
The assay “trypsin” addresses B1. The experiment in a line: ITC. In general terms: Isothermal titration calorimetry measures the heat released or taken up as one component is titrated into another.

A word on the Kd: it is a measure of binding affinity in units of concentration. Low readings indicate higher affinity, high ones lower affinity. Take B1: the Kd with BPTI was 6.57 nM.

B2: HWTX-XI (protein)
chain: IDTCRLPSDRGRCKASFERWYFNGRTCAKFIYGGCGGNGNKFPTQEACMKRCAKA
Consider B2, for which the dissociation constant Kd with trypsin stood at 0.23 nM.
